Data on one molecule can be found in US20190016806A1 (BPS BIOSCIENCE, published 2019).

For this assay, the target named is PD-1 expressed on Jurkat T cells (NFAT luciferase reporter) (human, UniProt Q15116 25-288). Put plainly: cell-based or functional assay.
Sequence of PD-1 expressed on Jurkat T cells (NFAT luciferase reporter) (Q15116 25-288): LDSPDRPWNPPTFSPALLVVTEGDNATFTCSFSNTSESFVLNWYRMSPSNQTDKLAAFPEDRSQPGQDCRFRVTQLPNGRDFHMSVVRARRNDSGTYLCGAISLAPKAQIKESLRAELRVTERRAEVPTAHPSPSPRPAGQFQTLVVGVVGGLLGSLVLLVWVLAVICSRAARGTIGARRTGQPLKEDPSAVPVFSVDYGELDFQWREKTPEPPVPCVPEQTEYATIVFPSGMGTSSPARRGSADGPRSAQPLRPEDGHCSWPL

B1: BPS hAb-10D3 humanized anti-PD-1 neutralizing antibody (antibody, V domains shown)
VH: QVQLQESGPGLVKPSQTLSLTCSVSGYSITSGYFWNWIRQFPGNKLEWIGYISYDGSKNYNPSLKNRVTIIRDTSKNQFSLKLNSVTAEDTATYYCVRGGLPVMDYWGQGTSVTVSS
VL: DIVMTQSPSSLALSVGEKATIQCKSSQSLLDDNNQKNYLAWYQQKPGQPPKLLIFFASTRESGVPDRFIGSGSGTDFTLTISSLQAEDLADYYCQQHYTTPYTFGGGTNVEIK
As to B1, the “EC50 of inhibition of PD-1 signaling (NFAT luciferase reporter in Jurkat T cells with PD-L1-expressing HEK293 cells)” value stood at 0.38 µg/mL.
